Measurements taken from paper doi:10.1101/2020.04.03.024018, “High-affinity agonist binding to C5aR results from a cooperative two-site binding mechanism” (bioRxiv, 2020).

What was measured:
Conditions in all cases: both partners purified
[1] = target: T1, C5a anaphylatoxin chemotactic receptor 1 (C5aR), wild type (human, UniProt P21730 1-350, sulfonated tyrosines (sulfonation detected by anti-sulfotyrosine Western blot; eliminated by the Y11F and Y14F mutations)); assay: single-molecule force spectroscopy (FD-based AFM); ligand on the AFM tip (PEG27 linker, tris-NTA-Ni2+); receptor in DOPC/CHS liposomes adsorbed on mica; high loading rates only (10^5-10^7 pN/s); Friddle-Noy-de Yoreo fit, Kd calculated from dGbu; 20 mM HEPES, 300 mM NaCl, about 24 °C
T1 construct: human G protein-coupled C5a receptor (C5aR), wild type; also called C5aR^WT; wtC5aR; source: HEK-293S GnTI- cells (BacMam), purified (Ni-NTA, anti-Flag M1 resin, SEC), reconstituted in DOPC/CHS liposomes; not shown: His8, C-terminal, kept
T1 sequence (looked up): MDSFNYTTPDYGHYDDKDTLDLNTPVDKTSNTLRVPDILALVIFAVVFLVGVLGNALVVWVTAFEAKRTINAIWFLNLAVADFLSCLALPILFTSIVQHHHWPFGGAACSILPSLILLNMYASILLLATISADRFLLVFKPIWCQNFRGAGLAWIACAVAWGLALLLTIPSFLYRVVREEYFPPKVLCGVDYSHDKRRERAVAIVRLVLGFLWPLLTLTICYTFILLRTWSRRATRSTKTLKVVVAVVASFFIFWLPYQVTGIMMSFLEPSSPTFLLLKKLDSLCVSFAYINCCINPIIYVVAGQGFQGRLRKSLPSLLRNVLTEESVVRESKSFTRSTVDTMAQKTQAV

[2] = target: T2, C5aRΔTyr mutant (Y11F and Y14F) (human, UniProt P21730 1-350, Y11F | Y14F); assay: as above
T2 construct: human C5aR with the two sulfation-site tyrosines changed; A legend and the methods print the second mutation as F14F; also called C5aR-d2Y; source: HEK-293S GnTI- cells (BacMam), purified, reconstituted in DOPC/CHS liposomes
T2 sequence (looked up): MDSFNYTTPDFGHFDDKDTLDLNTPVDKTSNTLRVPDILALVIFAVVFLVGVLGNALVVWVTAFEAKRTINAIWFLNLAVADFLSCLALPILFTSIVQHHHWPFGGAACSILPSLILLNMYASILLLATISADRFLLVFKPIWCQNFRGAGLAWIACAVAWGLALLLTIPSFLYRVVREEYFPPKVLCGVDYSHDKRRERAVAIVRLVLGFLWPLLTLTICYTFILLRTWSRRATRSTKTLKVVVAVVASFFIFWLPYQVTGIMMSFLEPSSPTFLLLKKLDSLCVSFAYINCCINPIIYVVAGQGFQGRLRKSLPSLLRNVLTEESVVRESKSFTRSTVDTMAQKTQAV

[3] = target: T1, C5a anaphylatoxin chemotactic receptor …; assay: single-molecule force spectroscopy (force-volume AFM + FD-based AFM); ligand on the AFM tip (PEG27 linker, tris-NTA-Ni2+); receptor in DOPC/CHS liposomes adsorbed on mica; low and high loading rates combined (10^2-10^7 pN/s); Friddle-Noy-de Yoreo fit, Kd calculated from dGbu; 20 mM HEPES, 300 mM NaCl, about 24 °C

B1: complement C5a anaphylatoxin (ligand, UniProt P01031 678-751, looked up)
chain: TLQKKIEEIAAKYKHSVVKKCCYDGACVNNDETCEQRAARISLGPRCIKAFTECCVVASQLRANISHKDMQLGR
notes: C5a anaphylatoxin, 74-aa glycoprotein, cut product of complement C5; C-terminal residue R74; numbers count on: the mature C5a; Held on the AFM tip through a PEG27 linker and tris-NTA-Ni2+; also called C5a ligand; endogenous C5a ligand
[1]
  Kd: ~0.001 µM
[2]
  Kd: ~20000 µM
[3]
  Kd: ~0.00609 µM
